T1: Human GPA33 (recombinant protein, Novoprotein) (human, UniProt Q99795 22-235)
T1 construct: Bought recombinant protein immobilized on a CM5 chip; also called GPA33 antigen; tumor antigen GPA33
T1 sequence: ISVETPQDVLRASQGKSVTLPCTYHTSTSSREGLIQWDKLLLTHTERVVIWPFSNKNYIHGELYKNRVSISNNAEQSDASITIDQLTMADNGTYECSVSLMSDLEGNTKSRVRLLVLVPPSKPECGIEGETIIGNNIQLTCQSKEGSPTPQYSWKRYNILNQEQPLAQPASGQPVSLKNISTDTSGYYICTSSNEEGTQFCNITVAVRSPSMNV

T2: Human GPA33 on GPA33+ colorectal cancer cell lines (Colo 205, LS 174T, SW 1222) (human, UniProt Q99795 22-319)
T2 construct: Endogenous GPA33 on human colorectal cancer cell lines; also called surface human GPA33; GPA33+ tumor cell lines
T2 sequence: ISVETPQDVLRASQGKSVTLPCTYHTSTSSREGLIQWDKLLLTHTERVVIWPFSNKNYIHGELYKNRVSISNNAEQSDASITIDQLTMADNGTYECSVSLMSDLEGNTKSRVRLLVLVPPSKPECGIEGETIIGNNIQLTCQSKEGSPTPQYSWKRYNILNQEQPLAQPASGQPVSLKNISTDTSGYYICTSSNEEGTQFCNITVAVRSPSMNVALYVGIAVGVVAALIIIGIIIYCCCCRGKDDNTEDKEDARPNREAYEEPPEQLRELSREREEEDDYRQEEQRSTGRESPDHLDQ

B1: BC105 (bispecific antibody, human IgG1, kappa, N297A)
heavy: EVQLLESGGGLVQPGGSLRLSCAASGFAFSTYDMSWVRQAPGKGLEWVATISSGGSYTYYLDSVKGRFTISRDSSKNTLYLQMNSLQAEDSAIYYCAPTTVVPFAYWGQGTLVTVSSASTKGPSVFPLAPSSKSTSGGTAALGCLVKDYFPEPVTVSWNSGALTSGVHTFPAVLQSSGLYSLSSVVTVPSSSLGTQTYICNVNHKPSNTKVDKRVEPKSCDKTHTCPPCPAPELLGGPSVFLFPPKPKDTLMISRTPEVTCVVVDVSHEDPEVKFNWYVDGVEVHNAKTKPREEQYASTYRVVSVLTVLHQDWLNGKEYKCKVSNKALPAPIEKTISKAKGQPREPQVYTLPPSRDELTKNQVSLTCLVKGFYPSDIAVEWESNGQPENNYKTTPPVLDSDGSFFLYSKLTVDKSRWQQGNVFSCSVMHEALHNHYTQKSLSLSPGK
light: DIQMTQSPSSLSVSVGDRVTITCKASQNVRTVVAWYQQKPGLAPKTLIYLASNRHTGVPSRFSGSGSGTDFTFTISSLQPEDIATYFCQQHWSYPLTFGQGTKVEVKRTVAAPSVFIFPPSDEQLKSGTASVVCLLNNFYPREAKVQWKVDNALQSGNSQESVTEQDSKDSTYSLSSTLTLSKADYEKHKVYACEVTHQGLSSPVTKSFNRGECGGGGSGGGGSASHVKLQESGPGLVQPSQSLSLTCTVSGFSLTDYGVHWVRQSPGKGLEWLGVIWSGGGTAYNTALISRLNIYRDNSKNQVFLEMNSLQAEDTAMYYCARRGSYPYNYFDAWGCGTTVTVSSGGGGSGGGGSGGGGSQAVVIQESALTTPPGETVTLTCGSSTGAVTASNYANWVQEKPDHCFTGLIGGHNNRPPGVPARFSGSLIGDKAALTIAGTQTEDEAIYFCALWYSDHWVIGGGTRLTVLG
notes: Previously described GPA33xDOTA IgG-[L]-scFv clone; The light chain entry carries the anti-DOTA scFv at its C-terminus; also called GPA33 BsAb-IgG (BC105); GPA33 clone BC105 BsAb
B2: TC234 (bispecific antibody)
chain: EVQLVESGGGLVDPGGSLRLSCAASGFAFSTYDMSWVRQAPGKGLEWVSTISSGGSYTYYADSVKGRFTISRDNAKNSLYLQMNSLRAEDTAVYYCAPTTVVPFAYWGQGTLVTVSAGGGGSGGGGSGGGGSGGGGSGGGGSGGGGSDIQMTQSPSSLSASVGDRVTITCKASQNVRTVVAWYQQKPGKAPKTLIYLASNRHTGVPSRFSGSGSGTEFTLTISNLQPEDFATYYCLQHWSYPLTFGSGTKLEVKRGGGGSGGGGSGGGGSGGGGSHVQLVESGGGLVQPGGSLRLSCAASGFSLTDYGVHWVRQAPGKGLEWLGVIWSGGGTAYNTALISRFTISRDNSKNTLYLQMNSLRAEDTAVYYCARRGSYPYNYFDAWGCGTLVTVSSGGGGSGGGGSGGGGSGGGGSGGGGSGGGGSQAVVTQEPSLTVSPGGTVTLTCGSSTGAVTASNYANWVQQKPGQCPRGLIGGHNNRPPGVPARFSGSLLGGKAALTLLGAQPEDEAEYYCALWYSDHWVIGGGTKLTVLGTPLGDTTHTSGKPLDGEYFTLQIRGRERFEMFRELNEALELKDAQAGKEPGGSGGAPHHHHHH
notes: pI variant of TC170 with a single mutation; Carries the p53 SADA (tetramerization) domain; also called GPA33xDOTA SADA; pI variant of TC170
B3: TC213 (bispecific antibody)
chain: EVQLVESGGGLVDPGGSLRLSCAASGFAFSTYDMSWVRQAPGKGLEWVSTISSGGSYTYYADSVKGRFTISRDNAANSLYLQMNSLRAEDTAVYYCAPTTVVPFAYWGQGTLVTVSAGGGGSGGGGSGGGGSGGGGSGGGGSGGGGSDIQMTQSPSSLSASVGDRVTITCKASQNVRTVVAWYQQKPGKAPKTLIYLASNRHTGVPSRFSGSGSGTEFTLTISNLQPEDFATYYCLQHWSYPLTFGSGTKLEVKRGGGGSGGGGSGGGGSGGGGSHVQLVESGGGLVQPGGSLRLSCAASGFSLTDYGVHWVRQAPGKGLEWLGVIWSGGGTAYNTALISRFTISRDNSKNTLYLQMNSLRAEDTAVYYCARRGSYPYNYFDAWGCGTLVTVSSGGGGSGGGGSGGGGSGGGGSGGGGSGGGGSQAVVTQEPSLTVSPGGTVTLTCGSSTGAVTASNYANWVQQKPGQCPRGLIGGHNNRPPGVPARFSGSLLGGKAALTLLGAQPEDEAEYYCALWYSDHWVIGGGTKLTVLGTPLGDTTHTSGKPLDGEYFTLQIRGRERFEMFRELNEALELKDAQAGKEPGGSGGAPHHHHHH
notes: pI variant of TC170 with a double mutation in the GPA33 scFv; Carries the p53 SADA (tetramerization) domain; also called GPA33xDOTA SADA; pI variant of TC170
B4: TC235 (bispecific antibody)
chain: EVQLVESGGGLVDPGGSLRLSCAASGFAFSTYDMSWVRQAPGKGLEWVSTISSGGSYTYYADSVKGRFTISRDNAANSLYLQMNSLRAEDTAVYYCAPTTVVPFAYWGQGTLVTVSAGGGGSGGGGSGGGGSGGGGSGGGGSGGGGSDIQMTQSPSSLSASVGDRVTITCKASQNVRTVVAWYQQKPGQAPKTLIYLASNRHTGVPSRFSGSGSGTEFTLTISNLQPEDFATYYCLQHWSYPLTFGSGTKLEVKRGGGGSGGGGSGGGGSGGGGSHVQLVESGGGLVQPGGSLRLSCAASGFSLTDYGVHWVRQAPGKGLEWLGVIWSGGGTAYNTALISRFTISRDNSKNTLYLQMNSLRAEDTAVYYCARRGSYPYNYFDAWGCGTLVTVSSGGGGSGGGGSGGGGSGGGGSGGGGSGGGGSQAVVTQEPSLTVSPGGTVTLTCGSSTGAVTASNYANWVQQKPGQCPRGLIGGHNNRPPGVPARFSGSLLGGKAALTLLGAQPEDEAEYYCALWYSDHWVIGGGTKLTVLGTPLGDTTHTSGKPLDGEYFTLQIRGRERFEMFRELNEALELKDAQAGKEPGGSGGAPHHHHHH
notes: pI variant of TC170 with a triple mutation in the GPA33 scFv; Carries the p53 SADA (tetramerization) domain; also called GPA33xDOTA SADA; pI variant of TC170

Tests used:
[1] = target: T1, Human GPA33 (recombinant protein, …); test: SPR (Biacore), human GPA33 immobilized on CM5 chip, two-state fit, ka1
Experimental: (§1) SPR analysis. Human GPA33 (Novoprotein, Summit, NJ) was immobilized on CM5 chips. Five concentrations of 2-fold serially diluted huA33 IgG1 or huA33-BsAbs (starting at 20 nM) were flowed over the chip using a Biacore™ T100 system (GE Healthcare, Chicago, IL). Binding kinetics of huA33 were measured at 25° C. and binding kinetics of huA33-BsAbs were measured at both 25° C. and 37° C. The sensorgrams were fitted with two state binding model for both to derive kinetic parameters.

[2] = target: T1, Human GPA33 (recombinant protein, …); test: SPR (Biacore), human GPA33 immobilised on the chip; KD relative to that of BC015
Outline: (§2)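 Surface plasmon resonance on a Biacore system with immobilised recombinant human GPA33 (Novoprotein) was used to determine KD by kinetic fitting. The values given are each KD divided by the KD of a reference molecule.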

[3] = target: T1, Human GPA33 (recombinant protein, …); test: SPR (Biacore), human GPA33 immobilized on CM5 chip, two-state fit, kd1
Outline: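 The off-rate (kd1) was measured by surface plasmon resonance on a Biacore T100, with recombinant human GPA33 (Novoprotein) immobilised on a CM5 chip. Antibodies were flowed over at five concentrations, 2-fold serial dilutions starting at 20 nM. The parent IgG1 was run at 25° C and bispecific formats at 25° C and 37° C. Sensorgrams were fitted with a two-state binding model to derive the kinetic parameters.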

[4] = target: T1, Human GPA33 (recombinant protein, …); test: SPR (Biacore), human GPA33 immobilized on CM5 chip, two-state fit
Experimental: as §1

[5] = target: T2, Human GPA33 on GPA33+ colorectal cancer …; test: FACS titration on SW1222 cells, geometric mean MFI [Cont.]
[6] = target: T2, Human GPA33 on GPA33+ colorectal cancer …; test: FACS binding to Colo205 cells (GPA33+)
[7] = target: T2, Human GPA33 on GPA33+ colorectal cancer …; test: FACS binding to SW1222 cells (GPA33+)
[8] = target: T1, Human GPA33 (recombinant protein, …); test: SPR (Biacore), human GPA33 immobilised on the chip; KD relative to that of TC170
Outline: as §2

[9] = target: T2, Human GPA33 on GPA33+ colorectal cancer …; test: FACS titration on LS174T cells, geometric mean MFI [Cont.]
[10] = target: T2, Human GPA33 on GPA33+ colorectal cancer …; test: FACS binding to LS174T cells (GPA33+)
[11] = target: T2, Human GPA33 on GPA33+ colorectal cancer …; test: FACS titration on Colo205 cells, geometric mean MFI

Row | Binder | kon [1] | Fold change of KD (relative to BC015, lower is better) [2] | koff [3] | Kd [4] | ka2 [4] | kd2 [4] | EC50 [5] | EC50 [6] | fold change of binding EC50 (relative to TC170, lower is better) [6] | EC50 [7] | fold change of binding EC50 (relative to TC170, lower is better) [7] | Fold change of KD (relative to TC170, lower is better) [8] | EC50 [9] | EC50 [10] | fold change of binding EC50 (relative to TC170, lower is better) [10] | EC50 [11]
1 | B1 | 4.43e+06 M⁻¹ s⁻¹ | 10.2 | 0.0236 s⁻¹ | 1.21 nM | 0.00238 s⁻¹ | 0.000697 s⁻¹ | – | – | – | – | – | – | – | – | – | –
2 | B2 | 4.65e+06 M⁻¹ s⁻¹ | – | 0.000966 s⁻¹ | 0.0122 nM | 0.00566 s⁻¹ | 0.000353 s⁻¹ | 2.05 nM | 0.71 nM | 0.96 | 2.05 nM | 1.24 | 0.8 | 0.21 nM | 0.21 nM | 0.68 | 0.71 nM
3 | B3 | 3.44e+06 M⁻¹ s⁻¹ | – | 0.000857 s⁻¹ | 0.0218 nM | 0.00636 s⁻¹ | 0.000611 s⁻¹ | 1.05 nM | 0.55 nM | 0.74 | 1.05 nM | 0.64 | 1.4 | 0.23 nM | 0.23 nM | 0.74 | 0.55 nM
4 | B4 | 3.38e+06 M⁻¹ s⁻¹ | – | 0.000981 s⁻¹ | 0.0242 nM | 0.00561 s⁻¹ | 0.00051 s⁻¹ | 1.03 nM | 0.53 nM | 0.72 | 1.03 nM | 0.62 | 1.5 | 0.22 nM | 0.22 nM | 0.71 | 0.53 nM
